Data on two molecules can be found in PMC3427169, “Interaction of Mycobacterium tuberculosis RshA and SigH Is Mediated by Salt Bridges” (PLoS ONE, 2012).

The target of test [1] is SigH (Mycobacterium tuberculosis) (UniProt P9WGH8). Conditions: cited from earlier work.
Test [2] has as its target T1, Mycobacterium tuberculosis SigH, 6xHis-tagged (pET29a) (Mycobacterium tuberculosis H37Rv, UniProt P9WGH9 1-216).
T1 construct: no tag removal is told; also called WT SigH; 6xHis:SigH; not shown: His6, C-terminal, kept
Description: native gel or EMSA; metal free RshA mixed with SigH at equimolar concentrations (3 µM each in the text, 5 µM each in the legend), 50 mM Tris HCl pH 8.0, 100 mM NaCl, 0.01% Triton X-100, 25°C; native gel pH 8.8 and SDS-PAGE, Coomassie. Particulars: both partners purified. (In general: In EMSA bound probe runs differently from free probe, usually more slowly.)

T1 sequence (P9WGH9 whole entry): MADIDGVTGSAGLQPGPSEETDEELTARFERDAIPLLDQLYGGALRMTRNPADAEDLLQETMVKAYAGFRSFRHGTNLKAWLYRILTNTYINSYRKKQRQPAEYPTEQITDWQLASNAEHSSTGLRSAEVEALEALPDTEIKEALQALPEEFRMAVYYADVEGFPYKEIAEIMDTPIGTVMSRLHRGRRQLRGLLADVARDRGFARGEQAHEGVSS
Sequence of SigH (Mycobacterium tuberculosis) (P9WGH8 whole entry): as the sequence (P9WGH9 whole entry) above

As a reminder, the Kd is a measure of binding affinity in units of concentration. Take RshA (from UniProt P9WJ68): the Kd in test [1] was 15 nM.

B1: Mycobacterium tuberculosis anti-sigma factor RshA, 6xHis-tagged (pET29a) (natural protein)
chain: MSENCGPTDAHADHDDSHGGMGCAEVIAEVWTLLDGECTPETRERLRRHLEACPGCLRHYGLEERIKALIGTKCRGDRAPEGLRERLRLEIRRTTIIRGGP
notes: also called WT RshA; 6xHis:RshA; not shown: His6, C-terminal, kept
Take B1: the binding result in test [2] is “binds”.
